In paper PMC4312099 (Nature, 2014):

Target: recombinant human core Mitotic Checkpoint Complex (untagged CDC20, SBP-BUBR1, His6-MAD2) (human, UniProt Q12834;O60566;Q13257)
Experiment: pull-down

Chain of recombinant human core Mitotic Checkpoint Complex (untagged CDC20, SBP-BUBR1, His6-MAD2) (O60566 whole entry, chain 2 of 2): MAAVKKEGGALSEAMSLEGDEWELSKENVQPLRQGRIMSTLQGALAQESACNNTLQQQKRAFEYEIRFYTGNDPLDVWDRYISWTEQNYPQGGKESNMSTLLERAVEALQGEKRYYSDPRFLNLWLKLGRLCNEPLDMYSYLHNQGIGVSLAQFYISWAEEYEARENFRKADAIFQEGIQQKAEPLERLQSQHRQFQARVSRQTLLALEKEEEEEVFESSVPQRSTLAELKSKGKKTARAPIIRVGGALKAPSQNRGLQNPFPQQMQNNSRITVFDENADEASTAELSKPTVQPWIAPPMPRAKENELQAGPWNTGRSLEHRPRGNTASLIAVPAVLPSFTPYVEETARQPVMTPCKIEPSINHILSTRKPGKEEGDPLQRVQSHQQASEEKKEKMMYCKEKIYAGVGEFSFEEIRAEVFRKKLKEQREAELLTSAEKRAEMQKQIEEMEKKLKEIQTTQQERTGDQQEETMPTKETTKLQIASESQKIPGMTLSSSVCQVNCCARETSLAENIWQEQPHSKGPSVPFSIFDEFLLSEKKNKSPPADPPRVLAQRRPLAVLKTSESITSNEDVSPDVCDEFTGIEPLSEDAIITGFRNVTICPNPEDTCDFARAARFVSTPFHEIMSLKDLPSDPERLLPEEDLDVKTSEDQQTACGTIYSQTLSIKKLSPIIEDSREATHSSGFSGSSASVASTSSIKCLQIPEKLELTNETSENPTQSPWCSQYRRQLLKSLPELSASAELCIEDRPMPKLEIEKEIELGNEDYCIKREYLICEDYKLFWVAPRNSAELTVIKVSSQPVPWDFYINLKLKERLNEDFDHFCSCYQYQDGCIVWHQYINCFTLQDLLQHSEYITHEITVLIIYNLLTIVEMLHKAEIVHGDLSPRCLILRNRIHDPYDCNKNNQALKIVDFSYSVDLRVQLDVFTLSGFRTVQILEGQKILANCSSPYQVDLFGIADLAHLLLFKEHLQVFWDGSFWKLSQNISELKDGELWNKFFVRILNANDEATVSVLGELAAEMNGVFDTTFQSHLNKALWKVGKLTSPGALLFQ
Chain of recombinant human core Mitotic Checkpoint Complex (untagged CDC20, SBP-BUBR1, His6-MAD2) (Q13257 whole entry, chain 3 of 2): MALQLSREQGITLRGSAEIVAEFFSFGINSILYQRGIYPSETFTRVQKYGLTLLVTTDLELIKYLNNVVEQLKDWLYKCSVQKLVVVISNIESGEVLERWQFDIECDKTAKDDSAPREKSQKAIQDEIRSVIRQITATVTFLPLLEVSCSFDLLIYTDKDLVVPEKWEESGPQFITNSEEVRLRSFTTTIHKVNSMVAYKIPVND

binding result: binds
B1: recombinant His6-tagged CDC20 ΔKILR (K129ILR/AAAA) mutant (natural protein)
chain: MAQFAFESDLHSLLQLDAPIPNAPPARWQRKAKEAAGPAPSPMRAANRSHSAGRTPGRTPGKSSSKVQTTPSKPGGDRYIPHRSAAQMEVASFLLSKENQPENSQTPTKKEHQKAWALNLNGFDVEEAAAAALSGKPQNAPEGYQNRLKVLYSQKATPGSSRKTCRYIPSLPDRILDAPEIRNDYYLNLVDWSSGNVLAVALDNSVYLWSASSGDILQLLQMEQPGEYISSVAWIKEGNYLAVGTSSAEVQLWDVQQQKRLRNMTSHSARVGSLSWNSYILSSGSRSGHIHHHDVRVAEHHVATLSGHSQEVCGLRWAPDGRHLASGGNDNLVNVWPSAPGEGGWVPLQTFTQHQGAVKAVAWCPWQSNVLATGGGTSDRHIRIWNVCSGACLSAVDAHSQVCSILWSPHYKELISGHGFAQNQLVIWKYPTMAKVAELKGHTSRVLSLTMSPDGATVASAAADETLRLWRCFELDPARRREREKASAAKSSLIHQGIR
